Reference: the supplement of paper PMC7125110
± gives the standard error. This sample holds only a part of the variants without activity.

B1: glmS ribozyme (parent)
chain: AUAAAAGCGCCAGAACUACAGAAAUGUAGUUGACGAGGAGGAGGUUUAUCGAAUUUUCGGCGGAUGCCUCCAAA

How the values were obtained:
Settings in all cases: with glucosamine-6-phosphate
glucosamine-6-phosphate [1] = variants of: B1; experiment: self-cleavage kobs at 40 uM GlcN6P; higher = faster cleavage; RNA array
Summary of the method: (§1)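 Tiles of sequenced MiSeq chips were imaged over ~14 h at 37 °C. On them, barcoded ribozyme variants had been transcribed in situ by E. coli RNA polymerase and were tracked via a hybridised Cy3 probe while glucosamine-6-phosphate (40 μM to 10 mM) in HEPES/KCl/Mg(OAc)2 buffer flowed in. Per-tile medians, normalised to baseline and to non-cleaving reference variants, were fit to one- or two-exponential decays for kobs, and weighted Michaelis–Menten fits gave kcat and KM.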

glucosamine-6-phosphate [2] = variants of: B1; experiment: self-cleavage kobs at 640 uM GlcN6P; higher = faster cleavage; RNA array
Summary of the method: as §1

glucosamine-6-phosphate [3] = variants of: B1; experiment: self-cleavage kobs at 10000 uM GlcN6P; higher = faster cleavage; RNA array
Summary of the method: as §1

glucosamine-6-phosphate [4] = variants of: B1; experiment: self-cleavage kobs at 160 uM GlcN6P; higher = faster cleavage; RNA array
Summary of the method: as §1

glucosamine-6-phosphate [5] = variants of: B1; experiment: self-cleavage kobs at 2500 uM GlcN6P; higher = faster cleavage; RNA array
Summary of the method: as §1

Row | Variant | self-cleavage kobs at 40 uM GlcN6P (glucosamine-6-phosphate [1]) [s⁻¹] | self-cleavage kobs at 640 uM GlcN6P (glucosamine-6-phosphate [2]) [s⁻¹] | self-cleavage kobs at 10000 uM GlcN6P (glucosamine-6-phosphate [3]) [s⁻¹] | self-cleavage kobs at 160 uM GlcN6P (glucosamine-6-phosphate [4]) [s⁻¹] | self-cleavage kobs at 2500 uM GlcN6P (glucosamine-6-phosphate [5]) [s⁻¹]
1 | G29C G32C U57G | < 1e-05 |  |  |  | 
2 | A6U A39C U47C A64U | < 1e-05 |  |  |  | 
3 | G41A G59U | < 1e-05 | < 1e-05 | < 1e-05 |  | 
4 | A12U G62C | < 1e-05 | < 1e-05 | < 1e-05 | < 1e-05 | < 1e-05
5 | G13U G35A U45A A64G | < 1e-05 | < 1e-05 | < 1e-05 |  | < 1e-05
6 | A14C G43C | < 1e-05 | < 1e-05 |  |  | < 1e-05
7 | C58A G59U G60U | < 1e-05 |  | < 1e-05 |  | 
8 | C8U G9C G35U C61G | < 1e-05 |  |  |  | 
9 | U54G C71A | 0.00016 ± 3.2e-05 |  | 0.00496 ± 0.001 |  | 0.00157 ± 0.00049
10 | G35U G63U | < 1e-05 | < 1e-05 | < 1e-05 | < 1e-05 | < 1e-05
11 | C11U U45G U55A C67G C68A | 6.74e-05 ± 3.3e-05 |  | 5.91e-05 ± 1.9e-05 |  | 
12 | A12U G37C A53C U54A | < 1e-05 |  |  |  | 
13 | U46G C68G C71G | 9.54e-05 ± 3.1e-05 |  |  |  | 
14 | C8G U30C | < 1e-05 |  | < 1e-05 |  | < 1e-05
15 | A14C G60U C71G | < 1e-05 |  | < 1e-05 |  | 
16 | C50G G63A C70G | 0.000105 ± 2.6e-05 | 0.000198 ± 4.3e-05 | 8.99e-05 ± 1.5e-05 |  | 9.35e-05 ± 3e-05
17 | C34G G37U G38C U47G U56C | < 1e-05 |  | < 1e-05 |  | 
18 | U46G G60U | < 1e-05 |  | < 1e-05 | < 1e-05 | 
19 | C10G G32U A53G C58G G60C | < 1e-05 |  | 0.000266 ± 4.4e-05 |  | 
20 | G29A U47G | 2.24e-05 ± 1.1e-05 | 0.000161 ± 6.4e-05 | 0.000713 ± 0.00011 |  | 
21 | C34G U54A | < 1e-05 | < 1e-05 | < 1e-05 | < 1e-05 | < 1e-05
22 | G40U G51A U54A A64U | < 1e-05 |  |  |  | 
23 | C16G C34U G59A G60U | < 1e-05 |  |  |  | 
24 | G7C G62U | < 1e-05 |  | < 1e-05 |  | < 1e-05
25 | G7U U31C C68G | 0.000102 ± 3.2e-05 |  |  |  | 
26 | C8U A14G G37A A39U G40U U47A C58G U65G C70U | < 1e-05 |  |  |  | < 1e-05

Row | Variant | self-cleavage kobs at 40 uM GlcN6P (glucosamine-6-phosphate [1]) [s⁻¹] | self-cleavage kobs at 640 uM GlcN6P (glucosamine-6-phosphate [2]) [s⁻¹] | self-cleavage kobs at 10000 uM GlcN6P (glucosamine-6-phosphate [3]) [s⁻¹] | self-cleavage kobs at 160 uM GlcN6P (glucosamine-6-phosphate [4]) [s⁻¹] | self-cleavage kobs at 2500 uM GlcN6P (glucosamine-6-phosphate [5]) [s⁻¹]
27 | U46G U47G G59A U65G | < 1e-05 |  |  |  | 
28 | U55A C67G | 0.000126 ± 3.4e-05 | 0.000179 ± 2.8e-05 | 0.00061 ± 0.00014 | 0.000104 ± 2.1e-05 | 0.00013 ± 2e-05
29 | G35C G41U G63U | < 1e-05 |  |  |  | 
30 | A36U G37C G41C U55G | < 1e-05 | < 1e-05 | < 1e-05 |  | 
31 | U45G U69A | 0.000333 ± 8.4e-05 |  | 0.000362 ± 7.9e-05 |  | 0.000589 ± 0.00025
32 | U30G A42U G43U A48U G59U | < 1e-05 |  |  |  | 
33 | C16A G44C C50A | < 1e-05 |  | < 1e-05 |  | 
34 | C50G C58G G66U C68A | 6.12e-05 ± 1.5e-05 | 0.000228 ± 8e-05 | 0.00013 ± 2e-05 | 0.000177 ± 4e-05 | 0.000368 ± 6.5e-05
35 | G38U G66C | < 1e-05 | < 1e-05 |  |  | 
36 | U46A A52U | < 1e-05 |  |  | < 1e-05 | 
37 | A6U G9U | < 1e-05 | < 1e-05 |  | < 1e-05 | < 1e-05
38 | A53G U69C | 0.000897 ± 0.00014 | 0.00235 ± 0.00048 | 0.00674 ± 0.0018 | 0.000469 ± 8.4e-05 | 0.002 ± 0.00044
39 | A36U A64G U69A C71G | 6.16e-05 ± 2.9e-05 |  |  |  | 
40 | G7C U46G C67G | < 1e-05 |  | < 1e-05 |  | 
41 | G62U G63A | < 1e-05 | < 1e-05 | < 1e-05 | < 1e-05 | < 1e-05
42 | G37U A42G | < 1e-05 | < 1e-05 |  |  | < 1e-05
43 | C11G G44U A48C C50A G59U G62C | < 1e-05 |  | < 1e-05 |  | 
44 | A14U G63U A64U | < 1e-05 |  |  |  | 
45 | G9U G29A U30A C67U | < 1e-05 |  |  |  | 
46 | C16G G59C | < 1e-05 | < 1e-05 | < 1e-05 | < 1e-05 | < 1e-05
47 | C8U C10G | < 1e-05 | < 1e-05 | < 1e-05 |  | 
48 | G44A A48U C67A | < 1e-05 |  | 0.000216 ± 5.2e-05 |  | 
49 | A6G U31A G44U C67G | < 1e-05 | < 1e-05 |  |  | 
50 | A6G G29C G51A | < 1e-05 |  | < 1e-05 |  | < 1e-05
51 | A12G C16A A36G U69C | < 1e-05 |  |  |  | 
